Source: PMC9482650, “Quantitative fragmentomics allow affinity mapping of interactomes” (Nature Communications, 2022)
Positions count from the first letter of the chain named.

Columns and labels:
Assay in all cases: holdup assay
Design in all cases: key: below the threshold = too weak to quantify, mostly under pKd 3.1 to 4
APBA2_2, Q99767 = molecular target: T1, APBA2_2, Q99767
T1 sequence (Q99767 654-744, limits assumed, looked up): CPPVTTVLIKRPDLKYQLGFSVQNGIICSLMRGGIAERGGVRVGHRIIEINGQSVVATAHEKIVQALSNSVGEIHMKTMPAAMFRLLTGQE

DLG2_3, Q15700 = molecular target: DLG2_3, Q15700
DLG4_2, P78352 = molecular target: DLG4_2, P78352
FRMPD1, Q5SYB0 = molecular target: T2, FRMPD1, Q5SYB0
T2 sequence (Q5SYB0 52-145, limits assumed, looked up): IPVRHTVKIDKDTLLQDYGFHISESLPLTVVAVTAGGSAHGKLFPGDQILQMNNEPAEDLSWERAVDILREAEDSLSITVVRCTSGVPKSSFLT

FRMPD3, Q5JV73 = molecular target: FRMPD3, Q5JV73
FRMPD4, Q14CM0 = molecular target: FRMPD4, Q14CM0
GRID2IP_1, A4D2P6 = molecular target: GRID2IP_1, A4D2P6
GRID2IP_2, A4D2P6 = molecular target: GRID2IP_2, A4D2P6
GRIP1_4, Q9Y3R0 = molecular target: T3, GRIP1_4, Q9Y3R0
T3 sequence (Q9Y3R0 467-571, limits assumed, looked up): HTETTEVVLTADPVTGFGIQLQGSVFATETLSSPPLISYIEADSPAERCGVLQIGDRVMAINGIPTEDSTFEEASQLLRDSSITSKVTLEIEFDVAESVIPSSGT

GRIP1_7, Q9Y3R0 = molecular target: T4, GRIP1_7, Q9Y3R0
T4 sequence (Q9Y3R0 999-1096, limits assumed, looked up): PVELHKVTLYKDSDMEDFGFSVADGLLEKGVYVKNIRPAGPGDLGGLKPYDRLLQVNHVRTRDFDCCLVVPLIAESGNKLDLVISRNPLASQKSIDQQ

IL16_1, Q14005 = molecular target: IL16_1, Q14005
Inadl_5, Q8NI35 = molecular target: Inadl_5, Q8NI35
LIN7A, O14910 = molecular target: T5, LIN7A, O14910
T5 sequence (O14910 103-200, limits assumed, looked up): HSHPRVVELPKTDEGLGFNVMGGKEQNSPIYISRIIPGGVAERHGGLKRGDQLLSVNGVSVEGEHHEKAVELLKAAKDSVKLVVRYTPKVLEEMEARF

LIN7B, Q9HAP6 = molecular target: T6, LIN7B, Q9HAP6
T6 sequence (Q9HAP6 88-185, limits assumed, looked up): T5 sequence (O14910 103-200, limits assumed, looked up) with S2A, V20I, I35V, E42D, H65Q, K77Q, D78G, K89R

LNX1_1, Q8TBB1 = molecular target: LNX1_1, Q8TBB1
LNX1_3, Q8TBB1 = molecular target: LNX1_3, Q8TBB1
MAGI2_3, Q86UL8 = molecular target: MAGI2_3, Q86UL8
MAGI2_4, Q86UL8 = molecular target: MAGI2_4, Q86UL8
MAGI2_6, Q86UL8 = molecular target: MAGI2_6, Q86UL8
MAST1, Q9Y2H9 = molecular target: MAST1, Q9Y2H9
PCLO, Q9Y6V0 = molecular target: T7, PCLO, Q9Y6V0
T7 sequence (Q9Y6V0 4491-4600, limits assumed, looked up): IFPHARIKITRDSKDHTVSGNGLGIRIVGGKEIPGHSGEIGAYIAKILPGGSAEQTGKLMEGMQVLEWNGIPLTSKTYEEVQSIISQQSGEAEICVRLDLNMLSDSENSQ

PDZD7_3, Q9H5P4 = molecular target: T8, PDZD7_3, Q9H5P4
T8 sequence (Q9H5P4 857-944, limits assumed, looked up): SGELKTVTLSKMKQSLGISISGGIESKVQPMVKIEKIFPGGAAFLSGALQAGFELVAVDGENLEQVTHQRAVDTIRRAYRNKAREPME

PDZRN4_1, Q6ZMN7 = molecular target: PDZRN4_1, Q6ZMN7
PTPN13_1, Q12923 = molecular target: T9, PTPN13_1, Q12923
T9 sequence (Q12923 1088-1188, limits assumed, looked up): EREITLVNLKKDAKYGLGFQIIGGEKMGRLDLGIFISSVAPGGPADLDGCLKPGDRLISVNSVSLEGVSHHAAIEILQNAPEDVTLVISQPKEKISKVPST

SCRIB_1, Q14160 = molecular target: SCRIB_1, Q14160
TIAM2, Q8IVF5 = molecular target: T10, TIAM2, Q8IVF5
T10 sequence (Q8IVF5 885-986, limits assumed, looked up): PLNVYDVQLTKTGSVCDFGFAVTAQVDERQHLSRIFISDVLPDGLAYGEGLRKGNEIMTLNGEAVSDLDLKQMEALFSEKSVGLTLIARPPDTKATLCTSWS

TJP1_2, Q07157 = molecular target: TJP1_2, Q07157
[1] = plain residues with an end cap or a label only (N-terminal biotin on a linker: (peg)3)
[2] = plain residues with an end cap or a label only (N-terminal biotin on a linker: ado-ado)

FRMPD4, Q14CM0, sequence (Q14CM0 67-160): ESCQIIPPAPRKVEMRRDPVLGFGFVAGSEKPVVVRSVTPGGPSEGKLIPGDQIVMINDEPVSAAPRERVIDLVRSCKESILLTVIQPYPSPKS
GRID2IP_1, A4D2P6, sequence (A4D2P6 1-87): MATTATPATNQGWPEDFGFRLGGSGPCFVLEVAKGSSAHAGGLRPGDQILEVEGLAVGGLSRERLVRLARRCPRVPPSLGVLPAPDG
GRID2IP_2, A4D2P6, sequence (A4D2P6 272-370): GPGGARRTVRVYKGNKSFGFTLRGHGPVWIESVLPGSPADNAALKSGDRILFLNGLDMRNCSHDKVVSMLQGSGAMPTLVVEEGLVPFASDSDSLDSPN
MAGI2_3, Q86UL8, sequence (Q86UL8 600-682): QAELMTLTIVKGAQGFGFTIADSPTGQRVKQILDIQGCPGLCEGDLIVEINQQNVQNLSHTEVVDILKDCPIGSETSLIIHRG
IL16_1, Q14005, sequence (Q14005 210-306): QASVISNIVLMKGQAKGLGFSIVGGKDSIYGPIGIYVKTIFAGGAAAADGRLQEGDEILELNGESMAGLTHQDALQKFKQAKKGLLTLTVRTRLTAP
LNX1_1, Q8TBB1, sequence (Q8TBB1 261-371): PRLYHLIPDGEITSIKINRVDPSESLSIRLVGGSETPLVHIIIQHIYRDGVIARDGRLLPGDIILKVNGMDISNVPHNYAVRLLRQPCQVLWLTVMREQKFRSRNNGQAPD
TJP1_2, Q07157, sequence (Q07157 181-274): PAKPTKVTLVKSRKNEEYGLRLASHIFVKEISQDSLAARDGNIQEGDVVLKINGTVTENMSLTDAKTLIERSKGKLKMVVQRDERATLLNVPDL
LNX1_3, Q8TBB1, sequence (Q8TBB1 500-596): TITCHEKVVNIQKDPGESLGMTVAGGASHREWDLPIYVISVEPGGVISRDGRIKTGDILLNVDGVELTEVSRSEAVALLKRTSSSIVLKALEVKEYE
PDZRN4_1, Q6ZMN7, sequence (Q6ZMN7 213-318): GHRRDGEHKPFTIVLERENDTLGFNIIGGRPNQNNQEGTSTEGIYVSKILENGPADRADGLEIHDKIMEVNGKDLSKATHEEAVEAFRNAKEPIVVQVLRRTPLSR
FRMPD3, Q5JV73, sequence (Q5JV73 12-100): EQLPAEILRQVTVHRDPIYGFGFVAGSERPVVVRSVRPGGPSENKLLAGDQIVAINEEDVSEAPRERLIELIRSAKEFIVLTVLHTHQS
MAST1, Q9Y2H9, sequence (Q9Y2H9 962-1065): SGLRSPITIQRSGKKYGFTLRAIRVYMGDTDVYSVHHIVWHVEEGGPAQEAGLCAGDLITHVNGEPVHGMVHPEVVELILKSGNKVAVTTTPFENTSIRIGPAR
Inadl_5, Q8NI35, sequence (Q8NI35 673-780): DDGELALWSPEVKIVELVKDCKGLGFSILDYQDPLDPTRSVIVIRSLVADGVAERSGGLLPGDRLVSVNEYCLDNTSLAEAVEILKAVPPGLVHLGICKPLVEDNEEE
DLG4_2, P78352, sequence (P78352 155-259): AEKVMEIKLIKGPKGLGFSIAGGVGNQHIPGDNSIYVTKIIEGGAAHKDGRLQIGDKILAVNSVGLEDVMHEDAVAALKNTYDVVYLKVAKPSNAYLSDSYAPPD
MAGI2_4, Q86UL8, sequence (Q86UL8 772-865): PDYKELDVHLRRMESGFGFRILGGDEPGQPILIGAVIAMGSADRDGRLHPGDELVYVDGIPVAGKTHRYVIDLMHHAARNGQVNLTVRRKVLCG
SCRIB_1, Q14160, sequence (Q14160 718-814): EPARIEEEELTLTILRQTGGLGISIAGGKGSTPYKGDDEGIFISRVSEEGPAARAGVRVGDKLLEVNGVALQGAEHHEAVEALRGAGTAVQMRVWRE
MAGI2_6, Q86UL8, sequence (Q86UL8 1141-1229): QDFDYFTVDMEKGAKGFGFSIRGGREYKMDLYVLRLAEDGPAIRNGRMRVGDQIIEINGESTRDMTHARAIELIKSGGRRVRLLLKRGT

**Q.** With RRRRSQSRESQC [HBV-HBc, P03193] as the binder, how does the pKd (APBA2_2, Q99767; [1]) read?
**A.** below the threshold

**Q.** What about the pKd (DLG2_3, Q15700; [1]) of the same binder?
**A.** 4.18

**Q.** What about the pKd (DLG4_2, P78352; [1]) of the same binder?
**A.** 4.3

**Q.** What about the pKd (FRMPD1, Q5SYB0; [1]) of the same binder?
**A.** below the threshold

**Q.** What about the pKd (FRMPD3, Q5JV73; [1]) of the same binder?
**A.** below the threshold

**Q.** And the pKd (FRMPD4, Q14CM0; [1])?
**A.** below the threshold

**Q.** And the pKd (GRID2IP_1, A4D2P6; [1])?
**A.** below the threshold

**Q.** And the pKd (GRID2IP_2, A4D2P6; [1])?
**A.** below the threshold

**Q.** And the pKd (GRIP1_4, Q9Y3R0; [1])?
**A.** below the threshold

**Q.** And the pKd (GRIP1_7, Q9Y3R0; [1])?
**A.** below the threshold

**Q.** And the pKd (IL16_1, Q14005; [1])?
**A.** below the threshold

**Q.** And the pKd (Inadl_5, Q8NI35; [1])?
**A.** below the threshold

**Q.** What about the pKd (LIN7A, O14910; [1]) of the same binder?
**A.** below the threshold

**Q.** And the pKd (LIN7B, Q9HAP6; [1])?
**A.** 3.7

**Q.** What about the pKd (LNX1_1, Q8TBB1; [1]) of the same binder?
**A.** below the threshold

**Q.** And the pKd (LNX1_3, Q8TBB1; [1])?
**A.** below the threshold

**Q.** What about the pKd (MAGI2_3, Q86UL8; [1]) of the same binder?
**A.** below the threshold

**Q.** And the pKd (MAGI2_4, Q86UL8; [1])?
**A.** below the threshold

**Q.** What about the pKd (MAGI2_6, Q86UL8; [1]) of the same binder?
**A.** below the threshold

**Q.** And the pKd (MAST1, Q9Y2H9; [1])?
**A.** 3.92

**Q.** What about the pKd (PCLO, Q9Y6V0; [1]) of the same binder?
**A.** below the threshold

**Q.** What about the pKd (PDZD7_3, Q9H5P4; [1]) of the same binder?
**A.** below the threshold

**Q.** And the pKd (PDZRN4_1, Q6ZMN7; [1])?
**A.** below the threshold

**Q.** What about the pKd (PTPN13_1, Q12923; [1]) of the same binder?
**A.** below the threshold

**Q.** And the pKd (SCRIB_1, Q14160; [1])?
**A.** 4.48

**Q.** What about the pKd (TIAM2, Q8IVF5; [1]) of the same binder?
**A.** 3.86

**Q.** And the pKd (TJP1_2, Q07157; [1])?
**A.** below the threshold

**Q.** For LKDDELKTKL [SLCO1A2, P46721], which pKd (APBA2_2, Q99767; [2]) is on record?
**A.** below the threshold

**Q.** And the pKd (DLG2_3, Q15700; [2])?
**A.** below the threshold

**Q.** What about the pKd (DLG4_2, P78352; [2]) of the same binder?
**A.** below the threshold

**Q.** And the pKd (FRMPD1, Q5SYB0; [2])?
**A.** below the threshold

**Q.** What about the pKd (FRMPD3, Q5JV73; [2]) of the same binder?
**A.** below the threshold

**Q.** And the pKd (FRMPD4, Q14CM0; [2])?
**A.** 4.17

**Q.** And the pKd (GRID2IP_1, A4D2P6; [2])?
**A.** below the threshold

**Q.** And the pKd (GRID2IP_2, A4D2P6; [2])?
**A.** 4.55

**Q.** And the pKd (GRIP1_4, Q9Y3R0; [2])?
**A.** below the threshold

**Q.** And the pKd (GRIP1_7, Q9Y3R0; [2])?
**A.** below the threshold

**Q.** What about the pKd (IL16_1, Q14005; [2]) of the same binder?
**A.** below the threshold

**Q.** And the pKd (Inadl_5, Q8NI35; [2])?
**A.** below the threshold

**Q.** What about the pKd (LIN7A, O14910; [2]) of the same binder?
**A.** below the threshold

**Q.** What about the pKd (LIN7B, Q9HAP6; [2]) of the same binder?
**A.** below the threshold

**Q.** What about the pKd (LNX1_1, Q8TBB1; [2]) of the same binder?
**A.** 3.72

**Q.** And the pKd (LNX1_3, Q8TBB1; [2])?
**A.** below the threshold

**Q.** What about the pKd (MAGI2_3, Q86UL8; [2]) of the same binder?
**A.** below the threshold

**Q.** And the pKd (MAGI2_4, Q86UL8; [2])?
**A.** below the threshold

**Q.** What about the pKd (MAGI2_6, Q86UL8; [2]) of the same binder?
**A.** below the threshold

**Q.** What about the pKd (MAST1, Q9Y2H9; [2]) of the same binder?
**A.** 4.64

**Q.** What about the pKd (PCLO, Q9Y6V0; [2]) of the same binder?
**A.** below the threshold

**Q.** And the pKd (PDZD7_3, Q9H5P4; [2])?
**A.** 4.43

**Q.** What about the pKd (PDZRN4_1, Q6ZMN7; [2]) of the same binder?
**A.** below the threshold

**Q.** What about the pKd (PTPN13_1, Q12923; [2]) of the same binder?
**A.** below the threshold

**Q.** What about the pKd (SCRIB_1, Q14160; [2]) of the same binder?
**A.** below the threshold

**Q.** What about the pKd (TIAM2, Q8IVF5; [2]) of the same binder?
**A.** below the threshold

**Q.** And the pKd (TJP1_2, Q07157; [2])?
**A.** below the threshold

**Q.** For DRIQSCLSDA [SBF1, O95248], which pKd (APBA2_2, Q99767; [2]) is on record?
**A.** 3.48

**Q.** What about the pKd (DLG2_3, Q15700; [2]) of the same binder?
**A.** 3.78

**Q.** What about the pKd (DLG4_2, P78352; [2]) of the same binder?
**A.** below the threshold

**Q.** What about the pKd (FRMPD1, Q5SYB0; [2]) of the same binder?
**A.** below the threshold

**Q.** What about the pKd (FRMPD3, Q5JV73; [2]) of the same binder?
**A.** below the threshold

**Q.** What about the pKd (FRMPD4, Q14CM0; [2]) of the same binder?
**A.** below the threshold

**Q.** And the pKd (GRID2IP_1, A4D2P6; [2])?
**A.** below the threshold

**Q.** And the pKd (GRID2IP_2, A4D2P6; [2])?
**A.** below the threshold

**Q.** And the pKd (GRIP1_4, Q9Y3R0; [2])?
**A.** below the threshold

**Q.** And the pKd (GRIP1_7, Q9Y3R0; [2])?
**A.** below the threshold

**Q.** And the pKd (IL16_1, Q14005; [2])?
**A.** below the threshold

**Q.** And the pKd (Inadl_5, Q8NI35; [2])?
**A.** below the threshold

**Q.** What about the pKd (LIN7A, O14910; [2]) of the same binder?
**A.** below the threshold

**Q.** And the pKd (LIN7B, Q9HAP6; [2])?
**A.** 3.72

**Q.** What about the pKd (LNX1_1, Q8TBB1; [2]) of the same binder?
**A.** 3.62

**Q.** And the pKd (LNX1_3, Q8TBB1; [2])?
**A.** below the threshold

**Q.** What about the pKd (MAGI2_3, Q86UL8; [2]) of the same binder?
**A.** below the threshold

**Q.** What about the pKd (MAGI2_4, Q86UL8; [2]) of the same binder?
**A.** 3.7

**Q.** What about the pKd (MAGI2_6, Q86UL8; [2]) of the same binder?
**A.** below the threshold

**Q.** And the pKd (MAST1, Q9Y2H9; [2])?
**A.** 3.62

**Q.** And the pKd (PCLO, Q9Y6V0; [2])?
**A.** below the threshold

**Q.** And the pKd (PDZD7_3, Q9H5P4; [2])?
**A.** below the threshold

**Q.** What about the pKd (PDZRN4_1, Q6ZMN7; [2]) of the same binder?
**A.** below the threshold

**Q.** And the pKd (PTPN13_1, Q12923; [2])?
**A.** 3.49

**Q.** What about the pKd (SCRIB_1, Q14160; [2]) of the same binder?
**A.** below the threshold

**Q.** And the pKd (TIAM2, Q8IVF5; [2])?
**A.** 4.03

**Q.** What about the pKd (TJP1_2, Q07157; [2]) of the same binder?
**A.** below the threshold
